Results: patent US20090143241

Key:
[1] = test system: GFP-tag (EGFP with the tmRNA peptide tag AANDENYALAA at the C terminus) [GFP: P42212]
[2] = test system: IXP1, cyclic SGWYGRRH peptide

| Substance | KM of GFP-tag degradation (ClpXP with SspB) [1] | KM of GFP-tag degradation (ClpXP with SspB, no cyclic peptide) [1] | kcat of GFP-tag degradation (ClpXP with SspB) [1] | kcat of GFP-tag degradation (ClpXP with SspB, no cyclic peptide) [1] | rate of GFP-tag proteolysis [2] | rate of ClpX ATP hydrolysis [2] | rate of ClpX ATP hydrolysis with GFP-tag included [2] |
| --- | --- | --- | --- | --- | --- | --- | --- |
| ClpXP protease (E. coli ClpX6 with ClpP14) | KM=0.74±0.04 | KM=0.74±0.04 µM | kcat=1.79±0.08 min-1 | kcat=1.79±0.08 min^-1 | Inclusion of purified IXP1 reduced the rate of GFP-tag proteolysis |  |  |
| ClpX (E. coli), N-terminally His6-tagged |  |  |  |  |  | The rate of ClpX ATP hydrolysis was not inhibited by IXP1 at concentrations up to 200 µM | IXP1 still had no effect on ClpX activity |
